These results are taken from publication PMC2905418, “High-affinity consensus binding of target RNAs by the STAR/GSG proteins GLD-1, STAR-2 and Quaking”.

For series [1], the target named is T1, GLD-1-STAR (C. elegans, UniProt Q17339 135-336).
T1 sequence: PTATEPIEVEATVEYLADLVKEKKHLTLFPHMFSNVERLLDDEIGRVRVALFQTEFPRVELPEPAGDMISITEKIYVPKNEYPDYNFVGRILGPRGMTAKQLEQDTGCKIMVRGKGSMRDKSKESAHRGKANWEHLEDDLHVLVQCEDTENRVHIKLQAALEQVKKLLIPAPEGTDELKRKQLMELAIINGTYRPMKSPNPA
The series can be described thus: competition FP. Particulars: probe TGE; 10 mM Tris pH 8.0, 25 mM NaCl, 0.1 mM EDTA, 0.1 mg/mL tRNA, 5 ug/mL heparin, 0.01% IGEPAL CA630, room temperature, 3 h; EMSA gel 6% native, 0.5x TBE, 4 C.

Series [2] has as its system STAR-2-STAR (C. elegans). The series can be described thus: EMSA. Particulars: 10 mM Tris pH 8.0, 25 mM NaCl, 0.1 mM EDTA, 0.1 mg/mL tRNA, 5 ug/mL heparin, 0.01% IGEPAL CA630, room temperature, 3 h; EMSA gel 6% native, 0.5x TBE, 4 C.
For series [3], the system named is STAR-2-STAR (C. elegans). Description: fluorescence polarization. The following applies: 10 mM Tris pH 8.0, 25 mM NaCl, 0.1 mM EDTA, 0.1 mg/mL tRNA, 5 ug/mL heparin, 0.01% IGEPAL CA630, room temperature, 3 h; EMSA gel 6% native, 0.5x TBE, 4 C. For orientation: Polarisation of emitted light reports the rotation of a fluorescent probe.
The subject of series [4] is STAR-2-STAR (C. elegans). Description: competition FP. Particulars: probe TGE; 10 mM Tris pH 8.0, 25 mM NaCl, 0.1 mM EDTA, 0.1 mg/mL tRNA, 5 ug/mL heparin, 0.01% IGEPAL CA630, room temperature, 3 h; EMSA gel 6% native, 0.5x TBE, 4 C. A general note: In EMSA bound probe runs differently from free probe, usually more slowly.
Series [5] concerns the target T1, GLD-1-STAR. The series can be described thus: competition FP; probe TGE; 10 mM Tris pH 8.0, 25 mM NaCl, 0.1 mM EDTA, 0.1 mg/mL tRNA, 5 ug/mL heparin, 0.01% IGEPAL CA630, room temperature, 3 h; EMSA gel 6% native, 0.5x TBE, 4 C. The following applies: protein: recombinant; tags: MBP fusion; chain copies: 2.
In series [6] the target is T2, Qk-1-STAR (mouse, UniProt Q9QYS9 7-214).
T2 sequence: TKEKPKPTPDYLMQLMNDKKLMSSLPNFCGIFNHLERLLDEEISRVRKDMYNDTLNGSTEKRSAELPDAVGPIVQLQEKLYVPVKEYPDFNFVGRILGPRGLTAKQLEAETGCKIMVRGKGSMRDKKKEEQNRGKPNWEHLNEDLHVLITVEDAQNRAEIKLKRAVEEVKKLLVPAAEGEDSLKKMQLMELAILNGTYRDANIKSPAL
Description: competition FP; probe C21A TGE; 10 mM Tris pH 8.0, 25 mM NaCl, 0.1 mM EDTA, 0.1 mg/mL tRNA, 5 ug/mL heparin, 0.01% IGEPAL CA630, room temperature, 3 h; EMSA gel 6% native, 0.5x TBE, 4 C. The following applies: protein: recombinant; tags: MBP fusion; chain copies: 2.

Series [7] deals with T2, Qk-1-STAR. The series can be described thus: EMSA; 10 mM Tris pH 8.0, 25 mM NaCl, 0.1 mM EDTA, 0.1 mg/mL tRNA, 5 ug/mL heparin, 0.01% IGEPAL CA630, room temperature, 3 h; EMSA gel 6% native, 0.5x TBE, 4 C. The following applies: protein: recombinant, tags: MBP fusion, chain copies: 2.
The target of series [8] is T1, GLD-1-STAR. The series can be described thus: competition FP; probe TGE; 10 mM Tris pH 8.0, 25 mM NaCl, 0.1 mM EDTA, 0.1 mg/mL tRNA, 5 ug/mL heparin, 0.01% IGEPAL CA630, room temperature, 3 h; EMSA gel 6% native, 0.5x TBE, 4 C. Particulars: protein: recombinant, tags: MBP fusion, chain copies: 2.
For series [9], the target named is T2, Qk-1-STAR. The series can be described thus: fluorescence polarization; 10 mM Tris pH 8.0, 25 mM NaCl, 0.1 mM EDTA, 0.1 mg/mL tRNA, 5 ug/mL heparin, 0.01% IGEPAL CA630, room temperature, 3 h; EMSA gel 6% native, 0.5x TBE, 4 C. The following applies: protein: recombinant; tags: MBP fusion; chain copies: 2; label: 5' 32P (EMSA), 5' fluorescein (FP).
Series [10] has as its target T1, GLD-1-STAR. The description is as above. The following applies: protein: recombinant; tags: MBP fusion; chain copies: 2; label: 5' 32P (EMSA), 5' fluorescein (FP).
For series [11], the target named is T1, GLD-1-STAR. Description: competition FP; slightly tighter than WT 12-mer; 10 mM Tris pH 8.0, 25 mM NaCl, 0.1 mM EDTA, 0.1 mg/mL tRNA, 5 ug/mL heparin, 0.01% IGEPAL CA630, room temperature, 3 h; EMSA gel 6% native, 0.5x TBE, 4 C. The following applies: protein: recombinant; tags: MBP fusion; chain copies: 2.
Series [12] addresses T1, GLD-1-STAR. Description: fluorescence polarization; slightly tighter than WT TGE; 10 mM Tris pH 8.0, 25 mM NaCl, 0.1 mM EDTA, 0.1 mg/mL tRNA, 5 ug/mL heparin, 0.01% IGEPAL CA630, room temperature, 3 h; EMSA gel 6% native, 0.5x TBE, 4 C. Particulars: protein: recombinant; tags: MBP fusion; chain copies: 2; label: 5' 32P (EMSA), 5' fluorescein (FP).
The target of series [13] is T2, Qk-1-STAR. Description: EMSA; first shift (K1); 10 mM Tris pH 8.0, 25 mM NaCl, 0.1 mM EDTA, 0.1 mg/mL tRNA, 5 ug/mL heparin, 0.01% IGEPAL CA630, room temperature, 3 h; EMSA gel 6% native, 0.5x TBE, 4 C. Particulars: protein: recombinant; tags: MBP fusion; chain copies: 2; label: 5' 32P.
Series [14] addresses T2, Qk-1-STAR. Description: EMSA; second shift (K2); 10 mM Tris pH 8.0, 25 mM NaCl, 0.1 mM EDTA, 0.1 mg/mL tRNA, 5 ug/mL heparin, 0.01% IGEPAL CA630, room temperature, 3 h; EMSA gel 6% native, 0.5x TBE, 4 C. The following applies: protein: recombinant; tags: MBP fusion; chain copies: 2; label: 5' 32P.
Setting [15] is: label: 5' 32P (EMSA), 5' fluorescein (FP).

With poly-U, one hexamer at 5' end, the Ki with GLD-1-STAR [1] was determined as 110 nM. Turning to “UAUUUAAUUUCUUAUCUACUAAUAUCUA [C21A TGE 28-mer]”, the values for the Kd in the series with STAR-2-STAR (C. elegans) [2] and in the series with STAR-2-STAR (C. elegans) [3] were 1.2 nM and 5 nM, respectively. For the molecule poly-U, two hexamers, 4-nt spacing, in the series with GLD-1-STAR [1], the Ki is 12.2 nM.

Turning to “UAUUUAAUUUCUUAUCUACUCAUAUCUA [WT TGE 28-mer]”, the values for the Kd in the series with STAR-2-STAR (C. elegans) [2] and in the series with STAR-2-STAR (C. elegans) [3] were 36 nM and 40 nM, respectively. Regarding “AUCUACUCAUAU [WT TGE half-site 12-mer (14-25; A21C in the A21 background)]”, in the series on STAR-2-STAR (C. elegans) [4], the IC50 ratio (IC50 TGE/WT half-site) came to 0.13. poly-U, two hexamers, 12-nt spacing: the Ki in the series with GLD-1-STAR [1] is 4.8 nM. For poly-U, two hexamers, 0-nt spacing, the Ki with GLD-1-STAR [1] was found to be 25.3 nM. Turning to “AUCUAAUCAUAU [C19A 12-mer (WT background)]”, in the series on STAR-2-STAR (C. elegans) [4], the IC50 ratio, WT half-site vs mutant probe (IC50 WT half-site/C19A) is 4.2. For the molecule poly-U, two hexamers, 2-nt spacing, in the series with GLD-1-STAR [1], the Ki amounted to 22.7 nM. Turning to “AUCUACUAAUAU [C21A (A21) half-site 12-mer]”, in the series with STAR-2-STAR (C. elegans) [4], the IC50 ratio (IC50 TGE/C21A 12-mer) was determined as 2.7 and the IC50 ratio, WT half-site vs mutant probe (IC50 WT half-site/C21A) was 20. Turning to AUCUAAUCGUCC (ssRNA) [TGE 56-67], the binding signal with GLD-1-STAR [5] was found to be 32 fold weaker than TGE. On to AUCUAAUAAUAU (ssRNA) [C19A 12-mer (A21 background)], for which the binding result with Qk-1-STAR [6] is “no binding”. For GACACUCGGUGCUCGGUGGAAAAAUAACCAU (ssRNA) [MBP:2-5'm1], the Kd in the series with Qk-1-STAR [7] (label: 5' 32P, predicted secondary structure (mfold)) was 498 nM. Regarding UAUUUAAUUUCUUAUCUA (ssRNA) [TGE 1-18], the binding signal in the series with GLD-1-STAR [5] was determined as 42 fold weaker than TGE.

As for AUCUACUCAUAU (ssRNA) [WT TGE half-site 12-mer (14-25; A21C in the A21 background)], the binding result with Qk-1-STAR [6] is given as “no binding”. In the series with GLD-1-STAR [5], the binding signal is approximately 9 fold weaker than TGE. As to UUUUUUUUUUUUUUUUUUUUUUUUUUUU (ssRNA) [poly-U 28-mer], the binding result in the series with GLD-1-STAR [8] was “no binding”. With UAUUUAAUUUCUUAUCUACUCAUAUCUA (ssRNA) [WT TGE 28-mer], the Kd is 49 ± 2 nM with Qk-1-STAR [7] (setting [15]), 63 ± 4 nM with Qk-1-STAR [9] and 32 ± 3 nM with GLD-1-STAR [10]. Further, the Ki with GLD-1-STAR [8] (setting [15]) was found to be 11.1 ± 4 nM. On to AUCUACUCAUAUCUAAUCGUCC (ssRNA) [TGE 46-67], for which the Ki with GLD-1-STAR [8] came out at 10.7 ± 2 nM. For the molecule AUCUACUAAUAU (ssRNA) [C21A (A21) half-site 12-mer], the Ki with Qk-1-STAR [6] amounted to 46 nM. In addition, in the series with GLD-1-STAR [11], the binding result is given as “binds”. UAUUCUCUUUCUUAUCUACUAAUAUCUA (ssRNA) [C21A TGE 5' mutant]: the Kd with Qk-1-STAR [7] (label: 5' 32P) worked out at 7.1 ± 1 nM.

For the molecule AUCUACUCAUAUCUACUCAUAU (ssRNA) [TGE 14-35], the Ki with GLD-1-STAR [8] is 4.6 ± 0.8 nM. As for UAUUUAAUUUCUUAUCUACUAAUAUCUA (ssRNA) [C21A TGE 28-mer], the dissociation constant (Kd) amounted to 1.2 ± 0.2 nM with Qk-1-STAR [7] (setting [15]) and 13 ± 2 nM with Qk-1-STAR [9]. Further, the binding result in the series with GLD-1-STAR [12] was “binds”.

On to GACACACUAACCUCGGUGGAAAAAUAACCAU (ssRNA) [MBP:2 (WT)], for which the values for the Kd with Qk-1-STAR [13] and with Qk-1-STAR [14] were 24.5 ± 5 nM and 269 ± 122 nM, respectively. GACACUCUCUCCUCGGUGGAAAAAUAACCAU (ssRNA) [MBP:2-5'm2]: the Kd with Qk-1-STAR [7] (label: 5' 32P) came out at 100 nM. GACACACUAACCUCGGUGGAAACUCUUACAU (ssRNA) [MBP:2-3'm2]: the Kd with Qk-1-STAR [13] came out at 69 nM; with Qk-1-STAR [14], 199 nM.

In general, Ki refers to a dissociation constant, usually derived from enzyme kinetics or from competition with a known ligand. The Kd is the equilibrium constant for the complex coming apart.
